Assay results taken from patent US20250313625A1 (ELPISCIENCE SUZHOU BIOPHARMA, published 2025).
Positions count from the first letter of the chain named.

T1: hFc tagged human LAG3 ECD recombinant protein (human, UniProt P18627 23-450)
T1 construct: range 23-450; also called biotin labelled hFc tagged human LAG3 ECD; not shown: human IgG Fc tag
T1 sequence (looked up): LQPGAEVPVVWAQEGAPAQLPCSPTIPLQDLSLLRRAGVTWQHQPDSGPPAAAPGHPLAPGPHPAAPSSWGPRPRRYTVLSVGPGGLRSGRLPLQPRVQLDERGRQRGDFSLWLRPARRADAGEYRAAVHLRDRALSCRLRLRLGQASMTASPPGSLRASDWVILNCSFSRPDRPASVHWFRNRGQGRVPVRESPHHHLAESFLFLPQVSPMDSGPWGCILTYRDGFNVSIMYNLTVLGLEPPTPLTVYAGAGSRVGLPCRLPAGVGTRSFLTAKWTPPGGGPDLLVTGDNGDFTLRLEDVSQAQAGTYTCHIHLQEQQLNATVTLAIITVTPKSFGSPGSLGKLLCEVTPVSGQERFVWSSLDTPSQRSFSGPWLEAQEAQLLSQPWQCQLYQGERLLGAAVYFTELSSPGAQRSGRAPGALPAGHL

T2: hFc tagged human LAG3 D1-D2 recombinant protein (human, UniProt P18627 23-261)
T2 construct: range 23-261; generated by Chempartner; also called hLAG3 D1-D2; not shown: human IgG Fc tag
T2 sequence (looked up): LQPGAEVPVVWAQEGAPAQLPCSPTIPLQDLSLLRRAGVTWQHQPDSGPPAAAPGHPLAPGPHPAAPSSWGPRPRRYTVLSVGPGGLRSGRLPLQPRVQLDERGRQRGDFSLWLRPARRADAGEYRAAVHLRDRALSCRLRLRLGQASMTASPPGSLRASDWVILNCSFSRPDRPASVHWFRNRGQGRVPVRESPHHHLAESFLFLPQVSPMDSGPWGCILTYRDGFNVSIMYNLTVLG

T3: human LAG3, full length, stably expressed on cells (human, UniProt P18627 23-525)
T3 construct: whole, on cells; also called CHOK1-human LAG3
T3 sequence (looked up): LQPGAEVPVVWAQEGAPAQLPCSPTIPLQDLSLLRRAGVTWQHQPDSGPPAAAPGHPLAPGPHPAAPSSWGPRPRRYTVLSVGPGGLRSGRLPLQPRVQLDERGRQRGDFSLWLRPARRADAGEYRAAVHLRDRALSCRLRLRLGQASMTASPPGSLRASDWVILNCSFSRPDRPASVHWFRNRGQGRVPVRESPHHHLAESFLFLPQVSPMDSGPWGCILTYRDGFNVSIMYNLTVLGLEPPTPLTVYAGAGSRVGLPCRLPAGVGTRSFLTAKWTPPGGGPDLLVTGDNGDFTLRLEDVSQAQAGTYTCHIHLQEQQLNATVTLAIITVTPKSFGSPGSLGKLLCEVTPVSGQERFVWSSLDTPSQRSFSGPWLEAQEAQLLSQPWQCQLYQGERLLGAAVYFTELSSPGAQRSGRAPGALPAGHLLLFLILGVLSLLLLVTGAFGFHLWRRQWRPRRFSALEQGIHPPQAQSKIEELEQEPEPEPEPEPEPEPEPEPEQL

T4: mouse LAG3, full length, stably expressed on CHOK1 cells (mouse, UniProt Q61790 24-521)
T4 construct: whole, on cells
T4 sequence (looked up): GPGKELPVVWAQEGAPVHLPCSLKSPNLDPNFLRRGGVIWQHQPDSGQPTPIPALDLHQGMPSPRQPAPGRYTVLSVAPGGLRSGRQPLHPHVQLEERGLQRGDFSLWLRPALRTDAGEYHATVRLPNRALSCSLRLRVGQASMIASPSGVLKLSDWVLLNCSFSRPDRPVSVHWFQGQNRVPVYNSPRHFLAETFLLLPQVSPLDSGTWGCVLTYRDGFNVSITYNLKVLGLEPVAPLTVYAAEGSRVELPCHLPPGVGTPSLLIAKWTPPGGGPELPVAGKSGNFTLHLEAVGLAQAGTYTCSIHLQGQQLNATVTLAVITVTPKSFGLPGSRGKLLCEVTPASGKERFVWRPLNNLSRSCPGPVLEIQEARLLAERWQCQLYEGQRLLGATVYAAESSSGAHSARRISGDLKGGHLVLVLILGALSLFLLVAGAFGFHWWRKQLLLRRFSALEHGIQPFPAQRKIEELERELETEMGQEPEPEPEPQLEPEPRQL

B1: Antibody 023 (antibody, V domains shown)
VH: QIQLVQSGPVLKKPGETVKISCKASGYTFTESPMNWVKQAPGRGFKWMGMIYTDTGEPTYAEEFKGRFAFSLETSASTAYLQINNLKSEDTATYFCVSDYGSILYWYFDVWGTGTTVTVSS
VL: DIVMTQSHKFMSTSVGDRVSITCKASQDVSTAVAWYQQTPGQSPKLLIYSASYRYTGVPDRFTGSGSGTDFTFTISSVQAEDLAVYYCQQHYNSPPTFGAGTKLELK
notes: mouse hybridoma antibody
B2: Antibody 024 (antibody, V domains shown)
VH: EVQLQQSGPELVKPGASVKISCKASGYTFTDYYMNWVKQSHGKRLEWIGDIDPNNGGTSYNQKFKGKATLTVDKSSSSAYMDLRSLTSEDSAVYYCARAGSYYYGSSYVEYFDVWGTGTTVTVSS
VL: DIQMTQSPASLSASVGETVTITCRASGNIHNYLAWYQQKQGASPQLLVYNAKTLADGVPSRFSGSGSGTEFSLKINSLQPEDFGNYYCQHFWNTPYTFGGGTKLEIK
notes: mouse hybridoma antibody
B3: Antibody 027 (antibody, V domains shown)
VH: EVKILQSGGGLVQPGGSLKLSCAASGIDFSRYWMSWVRRTPGKGLEWIGEINPDSSTINYAPSLKDKFIISRDNAKNTLYLQMSKVRSEDTALYYCARLGIIPTYHYGSSGYYYAMDYWGQGTSVTVSS
VL: DVLMTQTPLSLPVSLGDRASISCRSSQTIVHGNGHTSLEWYLQKPGQSPQLLIYKVSNRFSGVPDRFSASGSGTDFTLTISRVEAEDLGVYYCFQVSHVPYTFGGGTKLEIK
notes: mouse hybridoma antibody
B4: Antibody 029 (antibody, V domains shown)
VH: DVKLVESGEDLVKPGGSLKLSCAASGFTFSSYAMSWVRQTPEKRLEWVAYVTSGGDYIYYADTVKGRFTISRDDVRNTLYLQMSSLKSEDTAMYYCTRVAYDYEWYFDVWGTGAPVTVSS
VL: B1 VL with S30T, T39K, P59S, V85L, Y92D, N93S, P96W, A100G, L106I
notes: mouse hybridoma antibody
B5: Antibody 033 (antibody, V domains shown)
VH: EVQLQQSGAELVRPGASVKLSCTASDFNIKDDYIHWVKQRPEQGLEWIGWIDLENGDTEYASKFQGKATITADTSSNTAYLQLSSLTSEDTAVYYCTTKGSHWGQGTLVTVSA
VL: DVVMTQIPLSLPVSLGDQASISCRSSQSLVYSNGNTYLNWYLQKPGQSPKLLIHKVSNRFSGVPDRFSGSGSGTDFTLKISRVEAEDLGVYFCSQSTHVPYTFGGGTKLEIR
notes: mouse hybridoma antibody
B6: Antibody 035 (antibody, V domains shown)
VH: QVQLQQSGAELARPGASVKLSCKASGYSFTSYGINWVKQRTGQGLEWIGEIYPRSGNTYYNEKFKDKATLTADKSSSTAYMELRSLTSEDSAVYFCARGGTYDGYYYAMDFWGQGTSVTVSS
VL: DIVLTQSPASLAVSLGQRATISCRASESVDNFGSSFLHWYQQKPGQAPKLLIYRASNLESGIPARFSGSGSRTDFTLTINPVETDDVATYYCQQVNKDPRTFGGGTKLEIK
notes: mouse hybridoma antibody
B7: Antibody 047 (antibody, V domains shown)
VH: B6 VH with I34V, K63R, K65G, L83I, F111Y
VL: B6 VL with L37M
notes: mouse hybridoma antibody
B8: Antibody 057 (antibody, V domains shown)
VH: B6 VH with Y27F, F64L, D66G, K67E, K74R, F111Y
VL: B6 VL with D1N, L37M, S67G, R72G, N80D
notes: mouse hybridoma antibody
B9: Antibody 038 (antibody, V domains shown)
VH: DVQVQESGPGLVKPSQSLSLTCSVTGYSITSGYYWNWIRQFPGNKLEWMGYISYDGSNEYNLSLKNRLSITRDTSKNQFFLKLNSVTTEDTATYYCAREEDGYYGGMDYWGQGTSVTVSS
VL: DIVMTQSHKFMSASVGVRVSITCRASQDVDTAVAWYQQKPGQSPKLLIYWASTRHTGVPDRFTGSGSGTDFTLTISNVQSEDLADYFCQQYSSYPYTFGGGTKLEIK
notes: mouse hybridoma antibody

biological target: T1, hFc tagged human LAG3 ECD recombinant …; assay: competitive ELISA: excess competitor, biotin hFc-LAG3 ECD, coated BMS-986016
Experimental: (§1) Competitive ELISA assay was used for epitope binning of the purified hybridoma antibodies. […] After washing, HRP labeled anti-streptavidin (SA) 2nd antibody (Sigma) was added and incubated at 37° C. for 1 hour. Then, 100 μl/well of TMB solution (Biotechnology) was added. After incubation for 15 minutes at room temperature, the reaction was stopped by the addition of 50 μl of 1N HCl. OD 450 nm was read. Competition ratio was calculated.

Going from B1 to B2, the “% competition” value rises from 43.7% to 73%.

Compared with B3, B4 is higher in “% competition” value: 7.2% for the first, 20.3% for the second.

Going from B5 to B6, the “% competition” value falls from 92.5% to 21.7%.

First: B7
Second: B8
The “% competition” value of the first is lower: 8.9% for the first, 29.3% for the second.

For B9, the “% competition” value was 33.5%.

biological target: T2, hFc tagged human LAG3 D1-D2 recombinant …; assay: ELISA, coated hFc-hLAG3 D1-D2
Experimental: Binding activity of the purified hybridoma antibodies against human LAG3 was detected by ELISA assay using hFc tagged human LAG3 D1-D2 recombinant protein. Briefly the antibodies were incubated with ELISA microplate coated antigens at 37° C. for 1 hour. After washing, horseradish peroxidase (HRP) labeled anti-human IgG 2nd Ab (Sigma) was added and incubated at 37° C. for 1 hour. Then, 100 μl/well of TMB solution (Biotechnology) was added. After incubation for 15 minutes at room temperature, the reaction was stopped by the addition of 50 μl of 1N HCl. OD 450 nm was read and EC₅₀ was calculated using GraphPad Prism9.0.

B1 and B2 are the same in EC50: 0.05 nM for the first, 0.05 nM for the second.

B3 and B4 are within 1.5-fold of each other in EC50: 0.05 nM for the first, 0.06 nM for the second.

B5 and B6 are within 1.5-fold of each other in EC50: 0.07 nM for the first, 0.06 nM for the second.

Compared with B7, B8 is 2-fold lower in EC50: 0.04 nM for the first, 0.02 nM for the second. The second is the more potent here.

Binder B9 has an EC50 of 0.07 nM.

biological target: T5, cyno LAG3, full length, stably expressed on 293F cells (cyno); assay: FACS on 293F-cyno LAG3 cells, 20 nM antibody
T5 construct: whole, on cells
Experimental: (§2) Briefly the antibodies were incubated with 2×10⁵ target cells at 4° C. for 1 hour. After washing, fluorescence labeled anti-mouse IgG 2nd antibody (Life Technologies) was added and incubated at 4° C. for 1 hour. Geometric median fluorescence intensity (MFI) was detected and EC₅₀ was calculated using GraphPad Prism9.0.

First: B1
Second: B2
The “MFI at 20 nM” value of the first is lower: 125 MFI for the first, 154 MFI for the second.

First: B3
Second: B4
The “MFI at 20 nM” value of the first is higher: 132 MFI for the first, 35.6 MFI for the second.

First: B5
Second: B6
The “MFI at 20 nM” value of the first is lower: 83.4 MFI for the first, 155 MFI for the second.

First: B7
Second: B8
The “MFI at 20 nM” value of the first is higher: 129 MFI for the first, 83.4 MFI for the second.

B9 was tested, and the “MFI at 20 nM” value was 142 MFI.

biological target: T1, hFc tagged human LAG3 ECD recombinant …; assay: competitive ELISA: excess competitor, biotin hFc-LAG3 ECD, coated BAP-050
Experimental: as §1

First: B1
Second: B2
The “% competition” value of the first is lower: -2.7% for the first, -0.5% for the second.

Compared with B3, B4 is lower in “% competition” value: 85.1% for the first, 23.5% for the second.

Going from B5 to B6, the “% competition” value rises from 3.8% to 91.9%.

First: B7
Second: B8
The “% competition” value of the first is lower: 87.4% for the first, 87.7% for the second.

B9 was tested, and the “% competition” value was 6.4%.

biological target: T3, human LAG3, full length, stably …; assay: FACS on 293F-human LAG3 cells
Experimental: as §2

B1 and B2 are within 1.5-fold of each other in EC50: 2.65 nM for the first, 2.04 nM for the second.

Compared with B3, B4 is 1.9-fold higher in EC50: 2.38 nM for the first, 4.58 nM for the second.

Compared with B5, B6 is 3.5-fold lower in EC50: 2.33 nM for the first, 0.66 nM for the second. The second is the more potent here.

B7 and B8 are within 1.5-fold of each other in EC50: 1.14 nM for the first, 1.04 nM for the second.

Work on B9 yielded an EC50 of 1.12 nM.

biological target: T1, hFc tagged human LAG3 ECD recombinant …; assay: competitive FACS: hFc-LAG3 ECD binding to Raji cells (MHC II)
Experimental: Competitive FACS assay was used to determine whether the purified hybridoma antibodies can block LAG3 and MHC II interaction. […] After washing, dye labeled anti-human Fc 2nd antibody (Sigma) was added and incubated at 37° C. for 1 hour. Fluorescence intensity was detected.

B1 and B2 are within 1.5-fold of each other in IC50: 4.9 nM for the first, 5.5 nM for the second.

B3 and B4 are within 1.5-fold of each other in IC50: 5.4 nM for the first, 4.6 nM for the second.

B5 and B6 are within 1.5-fold of each other in IC50: 4.8 nM for the first, 5 nM for the second.

First: B7
Second: B8
The IC50 of the first is 1.5-fold higher: 7.7 nM for the first, 5.1 nM for the second. The second is the more potent here.

In the case of B9, the IC50 is reported as 4.2 nM.

Going from B1 to B2, the “TOP blocking (%)” value falls from 84.2% to 81%.

First: B3
Second: B4
The “TOP blocking (%)” value of the first is higher: 97.2% for the first, 90.7% for the second.

Going from B5 to B6, the “TOP blocking (%)” value rises from 98.8% to 99.2%.

First: B7
Second: B8
The “TOP blocking (%)” value of the first is lower: 82.7% for the first, 87.6% for the second.

In the case of B9, the “TOP blocking (%)” value is reported as 100%.

biological target: T4, mouse LAG3, full length, stably …; assay: FACS on CHOK1 cells expressing mouse LAG3
Experimental: as §2

B1: no binding.
B2: no binding.
B3: no binding.
B4: no binding.
B5: no binding.
B6: no binding.
B7: no binding.
B8: no binding.
B9: no binding.
